Here are results for 3 molecules from patent US20180362643A1 (Amgen, published 2018).

Ends that are not written are not given here.

The target of assay [1] is T1, full-length human PACAP38 (human, not fully specified).
T1 peptide: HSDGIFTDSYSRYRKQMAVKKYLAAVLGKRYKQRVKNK
Put plainly: cell-based or functional assay.

Assay [2] concerns the target T2, human PACAP27 (human, not fully specified).
T2 peptide: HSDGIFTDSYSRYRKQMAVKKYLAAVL
Put plainly: cell-based or functional assay.

In assay [3] the target is T3, vasoactive intestinal peptide (VIP) (human).
T3 construct: also called human VIP
T3 peptide: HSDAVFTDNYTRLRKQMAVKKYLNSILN
Put plainly: ELISA screen of B-cell culture supernatant. Background: ELISA stands for enzyme-linked immunosorbent assay.

In assay [4] the target is T3, vasoactive intestinal peptide (VIP). As to the kind of experiment: ELISA screen of B-cell culture supernatant; VIP at 100 ng/mL.
Assay [5] addresses T4, carboxy terminal PACAP38 peptide (amino acids 28-38) (human, ends and bridges not checked).
T4 construct: also called C-terminal Peptide; C-terminal PACAP peptide
T4 peptide: GKRYKQRVKNK
Put plainly: ELISA screen of B-cell culture supernatant; C-terminal peptide at 500 ng/mL. The text has this:
(§1) Rabbits were immunized with human PACAP38 peptide ([…]; SEQ ID NO: 1). Monoclonal antibodies were generated from the immunized rabbits using the Selected Lymphocyte Antibody Method (SLAM) as described in Babcook et al., Proc. Natl. Acad. Sci. USA, Vol. 93: 7843-7848, 1996. Briefly, B cells were harvested from spleens from the immunized rabbits and expanded in culture. The supernatant from the expanded B-cell cultures was initially screened for binding to an amino terminal PACAP38 peptide ([…]; SEQ ID NO: 5) and a carboxy terminal PACAP38 peptide ([…]; SEQ ID NO: 4) using an ELISA assay. From the initial screen, 2,935 N-terminal and/or C-terminal binders were identified. The affinity of these antibodies for full-length human PACAP38 (SEQ ID NO: 1) was assessed by ELISA assay.

Assay [6] concerns the target T1, full-length human PACAP38. Put plainly: ELISA screen of B-cell culture supernatant; full-length PACAP38 at 10 ng/mL.
Source text: as §1

Assay [7] concerns the target T5, PACAP38 peptide fragment 6-20 (human).
T5 construct: also called peptide No. 13
T5 peptide: FTDSYSRYRKQMAVK
As to the kind of experiment: SPR (Biacore 3000), solution competition with the peptide for antibody binding to immobilised full-length PACAP38; % inhibition. Here is the method: (§2) The binding epitopes of anti-PACAP antibodies were evaluated by using the Biacore 3000 biosensor-based instrument (GE Healthcare USA). The Biacore 3000 instrument utilizes surface plasmon resonance (SPR) technology to measure mass increase on the sensor-chip surface. The binding interactions are measured in real-time and recorded as Response Units (RU). Each binding profile (cycle) is stored in a “sensorgram” in real-time. Generally, Biacore technology entails immobilizing a ligand of interest on to a flow-cell of the sensor-chip via a coupling chemistry. The analyte (e.g. putative binding partner to the ligand of interest) is injected across the immobilized ligand allowing it to bind to the ligand-immobilized surface. The magnitude of the response is directly proportional to the mass increase on the immobilized surface due to the binding of the analyte.
(§3) In this experiment, various peptide fragments of PACAP38 were incubated with each of the six antibodies (mAb1, mAb2, mAb3, mAb4, mAb5, and mAb6) described in Example 2 and evaluated for their ability to inhibit binding of the antibodies to full-length PACAP38 immobilized on the sensor-chip. The binding epitopes for each of the antibodies were deduced from the set of peptides that were able to inhibit the binding of each antibody to full-length PACAP38.
(§4) Each of the six anti-PACAP antibodies was incubated at a 1:200 molar ratio (Ab: peptide fragment) with each of the peptide fragments in Table 9 at an ambient temperature for 2 hours prior to analysis. […] A second control containing 6.5 nM antibody was prepared in sample diluent to be used as the untreated control sample for each antibody. Full-length PACAP38, buffer, and each peptide fragment were also tested to evaluate non-specific binding to the immobilized PACAP38 surface.

In assay [8] the target is T6, PACAP38 peptide fragment 6-37 (human).
T6 construct: also called peptide No. 3
T6 peptide: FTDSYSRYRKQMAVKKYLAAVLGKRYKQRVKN
As to the kind of experiment: SPR (Biacore 3000), solution competition: antibody pre-incubated 2 h with the peptide at 1:200 molar ratio (Ab:peptide), then injected over immobilised full-length PACAP38; readout % inhibition of antibody binding (filing counts >50 % as reactive). Here is the method:
as §2, §3, §4
For orientation: In SPR one partner is held on a chip, and binding of the other changes the refractive index at the surface.

Assay [9] has as its target T7, PACAP38 peptide fragment 14-38 (human, not fully specified).
T7 construct: also called peptide No. 7
T7 peptide: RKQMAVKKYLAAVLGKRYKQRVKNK
Described as above. Here is the method:
as §2, §3, §4

The target of assay [10] is T8, PACAP38 peptide fragment 6-38 (human, not fully specified).
T8 construct: also called peptide No. 11
T8 peptide: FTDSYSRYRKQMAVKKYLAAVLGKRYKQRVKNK
The description is as above. As to the method:
as §2, §3, §4

For assay [11], the target named is T4, carboxy terminal PACAP38 peptide (amino …). As to the kind of experiment: ELISA screen of B-cell culture supernatant.
Assay [12] concerns the target T9, 30-37.
T9 construct: also called PACAP38 peptide fragment 30-37; peptide No. 19
T9 peptide: RYKQRVKN
As to the kind of experiment: SPR (Biacore 3000), solution competition with the peptide for antibody binding to immobilised full-length PACAP38; % inhibition. Here is the method:
as §2, §3, §4

Assay [13] has as its target T10, amino terminal PACAP38 peptide (amino acids 1-13) (human).
T10 construct: also called N-terminal Peptide; N-terminal PACAP peptide
T10 peptide: HSDGIFTDSYSRY
Put plainly: ELISA screen of B-cell culture supernatant; N-terminal peptide at 500 ng/mL; ELISA screen of B-cell culture supernatant (Example 1); N-terminal peptide 500 ng/mL; optical density.
Source text: as §1

Assay [14] has as its target T11, PACAP38 peptide fragment 6-36 (human).
T11 construct: also called peptide No. 12
T11 peptide: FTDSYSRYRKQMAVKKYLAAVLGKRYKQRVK
Put plainly: SPR (Biacore 3000), solution competition: antibody pre-incubated 2 h with the peptide at 1:200 molar ratio (Ab:peptide), then injected over immobilised full-length PACAP38; readout % inhibition of antibody binding (filing counts >50 % as reactive). Here is the method: as §2, §3, §4

B1: mAb2 (antibody, V domains shown)
VH: QSLEESGGGLVQPEGSLTLTCTASGFSFNSSSYMCWVRQAPGKGLEWIGCIFTGSSGNTYYATWAQGRFTISKTSTTVTLEMTSLTAADTATYFCARDRAYFLVGYFYATYYFDLWGPGTLVTVSS
VL: DVVMTQTPSPVSAQVGGTVTINCQASESIDSDLSWYQQKPGQPPKLLIYRTFTLESGVPSRFKGSGSGTDYTLTISDLECADAAIYYCQCTDGSSISGSYGWDAFGGGTEVVVKG
notes: Rabbit monoclonal antibody (SLAM), recombinant; also called monoclonal anti-PACAP antibody 2; 2 (c81)
As to B1, in [1], the “IC50: inhibition of PACAP38 (10 pM)-induced activation of human PAC1 receptor, cAMP assay in SH-SY5Y (CRL-2266) cells, POC versus antibody concentration” value amounted to 0.4 nM. In [2], the “IC50: inhibition of PACAP27 (10 pM)-induced activation of human PAC1 receptor, cAMP assay in SH-SY5Y (CRL-2266) cells, POC versus antibody concentration” value is > 1 uM. For the same molecule, the binding result is “no binding (tested: 100 ng/mL)” in assay [3]; “no binding (tested: 1:200 molar ratio (Ab:peptide))” in [7]; “binds” in assay [8]; “binds” in assay [9]; “binds” in assay [10]. Moreover, the “Optical Density” value came out at 0.09 OD in assay [4], 3.74 OD in assay [5] and 3.39 OD in [6].

B2: mAb5 (antibody, V domains shown)
VH: QSVEESGGRLVTPGTPLTLTCTVSGFSLSTYNMCWVRQAPGKGLEWVGFINSDDSAYYASWAKGRFTFSKTSTTVDLKIASPTTEDTATYFCARYDWDYYYSRLDLWGPGTLVTVSS
VL: DIVLTQTPASVSAAVGGTVSISCQSSESVYNNNYLSWFQQKPGQPPKLLIYGASTLASGVPSRFEGSGSGTQFTLTISDVQCDDAATYYCLGDYIIIENIFGGGTEVVVKG
notes: Rabbit monoclonal antibody (SLAM), recombinant; also called monoclonal anti-PACAP antibody 5; 5 (c71)
As for B2, in assay [1], the “IC50: inhibition of PACAP38 (10 pM)-induced activation of human PAC1 receptor, cAMP assay in SH-SY5Y (CRL-2266) cells, POC versus antibody concentration” value was 1 nM. In addition, in assay [2], the “IC50: inhibition of PACAP27 (10 pM)-induced activation of human PAC1 receptor, cAMP assay in SH-SY5Y (CRL-2266) cells, POC versus antibody concentration” value is 26 nM. Besides, the binding result in [3] is “no binding (tested: 100 ng/mL)”; in [11] it was “no binding (tested: 500 ng/mL)”; in assay [12] it was “no binding (tested: 1:200 molar ratio (Ab:peptide))”; in assay [7], “no binding (tested: 1:200 molar ratio (Ab:peptide))”; in assay [8] it was “binds”; in assay [10], “binds”. Also, the binding result in [14] is recorded as “binds”. Further, the “Optical Density” value in [4] was determined as 0.12 OD; in [5], 0.05 OD; in assay [6] it was 3.21 OD; in assay [13], 1.34 OD.

B3: mAb6 (antibody, V domains shown)
VH: QLEESGGGLVQPGASLTLTCTTSGFSLSDNYLCWVRQAPGRGLEWVACIGIVLRSTGATYYASWAEGRFTISKTSPTTVTLEMTSLTAADTATYFCALDLGYGGPLWGPGTLVTVSS
VL: AQVLTQTPASVSAAVGGTVTINCQASQSVYNNKNLAWYQQKPGQPPKLLIYFSSTLASGVPSRFRGSGSGTQFTLTISGVQCGDAATYYCLGEFGSIWAFGGGTEVVVKG
notes: Rabbit monoclonal antibody (SLAM), recombinant; also called monoclonal anti-PACAP antibody 6; 6 (c55)
As to B3, in [1], the “IC50: inhibition of PACAP38 (10 pM)-induced activation of human PAC1 receptor, cAMP assay in SH-SY5Y (CRL-2266) cells, POC versus antibody concentration” value stood at 0.6 nM. The “IC50: inhibition of PACAP27 (10 pM)-induced activation of human PAC1 receptor, cAMP assay in SH-SY5Y (CRL-2266) cells, POC versus antibody concentration” value in [2] was 0.5 nM. For the same molecule, the binding result in [11] was “no binding (tested: 500 ng/mL)”; in assay [12] it was “no binding (tested: 1:200 molar ratio (Ab:peptide))”; in assay [7], “no binding (tested: 1:200 molar ratio (Ab:peptide))”; in assay [8], “binds”; in assay [9] it was “binds”; in assay [10] it was “binds”. In assay [14], the binding result was “binds”. Also, the “Optical Density” value in [4] came to 0.95 OD; in [5], 0.05 OD; in assay [6], 3.55 OD; in assay [13], 4.24 OD.
